Assay results taken from the supplement of paper PMC9170038.

Tested on: MS2 coat protein
Test: apparent KD of MS2 coat protein; designed switch direction (-1 OFF switch, 1 ON switch): -1; higher = weaker reporter binding
In short: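 For each design, the apparent KD is the median over clusters of curves fitted to normalised cluster fluorescence. Clusters held RNA switches with common flanks, transcribed on Illumina chips by stalled E. coli RNA polymerase. These were titrated with SNAP-549-labelled MS2 coat protein, doubling from 0.7 or 1.5 nM to 3 µM, without input, with 200 uM small-molecule ligand, or with an oligonucleotide input.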

[1] = input ligand: microRNA oligo, concentration not stated
[2] = Eterna round: R95, input ligand: FMN 200 uM
[3] = Eterna round: R95, input ligand: microRNA oligo, concentration not stated
[4] = Eterna round: R95, input ligand: none

| Sequence | apparent KD of MS2 coat protein (input ligand: FMN 200 uM) [nM] | apparent KD of MS2 coat protein [1] [nM] | apparent KD of MS2 coat protein (input ligand: none) [nM] | apparent KD of MS2 coat protein [2] [nM] | apparent KD of MS2 coat protein [3] [nM] | apparent KD of MS2 coat protein [4] [nM] |
| --- | --- | --- | --- | --- | --- | --- |
| UGAGUGCUGCGAGGAUAUACAUGAGGAUCACCCAUGUGGAUCUGUGAGGCUUUGCCUCACAGGAUGUAGAAGGCGCAGUACUCU [JL ENG2 1.19] (Eterna round: R96, puzzle: Exclusion NG 2) | 156 | 17.8 | 27.4 | – | – | – |
| AGUACUAUGCGAGCUGACUUGCGUAGUGCAGCAGGUGUAACAUGAGGAUCACCCAUGUCCUCAUUUGCUCGUCUUAU [Mat - Sensor v3 - Turn-off var 2 - D8] (puzzle: Sensor v3, turn-off variant 2) | – | – | – | 250 | 326 | 248 |
| GGCCUACAUGAGGAUCACCCAUGUAAGGAUAUCAAGUCGGGCUCCAAGGAAGCCCAUAUGAGAAGGUAUUUGGG [Eternabot (L2) Solution 32] (Eterna round: R97, puzzle: Exclusion 1) | 116 | – | 25.3 | – | – | – |
| CCGGUAAAGGAGGAUAUAGGAGUCGAUAGACACCUAGAAGGCCUGACAUGAGGAUCACCCAUGUGUCCUUCCGG [Fiskers Ex 6 - 94] (puzzle: Exclusion 6) | – | – | – | – | 16.8 | – |
| CAUUGUUAUCGAGGAUAUCGUAUUGAGAUUCUACGAGAAGGCGGACUAAACAUGAGGAUCACCCAUGUGGGACGGAUGCUUGGG [Ex NG1 #31] (Eterna round: R96, puzzle: Exclusion NG 1) | 30.7 | 25.8 | 28.1 | – | – | – |
| AACCUGAGGCUUUGCUUUAGGUGUACAUGAGGAUCACCCAUGUAGGAUAUGGUAGGCUUUGCUUACCAGAAGGACAUUAUGAUU [JL ENG3 1.18] (Eterna round: R96, puzzle: Exclusion NG 3) | 119 | 33.4 | 37.1 | – | – | – |
| CCCGCAGGCUUUUUGCUCGACAUGAGGAUCACCCAUGUUGUAUGGGUUGUGUGUGUGUGGUGCAUAUAUAUGGUCCU [-25.6, -50.1 kcal, A 16%] (Eterna round: R97, puzzle: Sensor, turn-off variant 1) | 313 | – | 469 | – | – | – |
| GCGUGAAGGCAGGAUAUAAGAAAAGAAAGAAAAUUAGAAGGGCCGACAUGAGGAUCACCCAUGUGGGCAUGAUC [Xeorusza] (Eterna round: R97, puzzle: Exclusion 6) | 33.8 | – | 15.9 | – | – | – |
| AGUGUGGGAGGAUAUACAUGAGGAUCACCCAUGUGAGUUGGCUCACAUGCUACGCUUCGUAGAAGGCCCAAAGA [Reragebion] (Eterna round: R96, puzzle: Exclusion 3) | 554 | 86.2 | 91.3 | – | – | – |
| GAGUGACAUGAGGAUCACCCAUGUGAGGAUAUCGGACGGACCAAAUUAACAACAACCGCGAGAAGGCACAUCGG [Exclusion 1 V20] (puzzle: Exclusion 1) | – | – | – | – | 112 | – |
| UUUUGCUCAGGAUAUACAUGAGGAUCACCCAUGUAUAUUGAAGGUAAUACAUGGGAAUGUAGAAGGGAGCUCAU [Omei Ex3 Pseudoloop 21] (Eterna round: R97, puzzle: Exclusion 3) | 47.9 | – | 70.4 | – | – | – |
| GUAAGAUCCGUCAGGAUAUAUGCCCAAGGAGGGACGUAGAAGGGACAUGAGGAUCACCCAUGUACCUCAAGGAU [Eternabot (L1) Solution 97] (Eterna round: R97, puzzle: Brourd's mod of Exclusion 4) | 17.6 | – | 16.1 | – | – | – |
| GGUCCACAUGAGGAUCACCCAUGUUAGGAUAUCUCGCCCGAGUCGUUAUGGGCCGGGCAGAGAAGGAAUGUGAA [Redion] (puzzle: Exclusion 1) | – | – | – | – | 17.9 | – |
| AGAGUGCUGCGAGGAUAUACAUGAGGAUCACCCAUGUAAAAGUGUGAGGCAAAGCCUCACACGAAGUAGAAGGCGCAGUACUCA [Mat - Exclusion NG 2 - Mod of JL - D34] (Eterna round: R96, puzzle: Exclusion NG 2) | 12.8 | 9.85 | 25.2 | – | – | – |
| AUCAGCUCGUGAGGAUAUGCACAUGAGGAUCACCCAUGUAAGAUCAAGCUGCUUCGGCAGCAAGUGCAGAAGGCACGAGCUGAU [ENG2/9-A2] (Eterna round: R96, puzzle: Exclusion NG 2) | 186 | 132 | 182 | – | – | – |
| UUUAAGUCAGGAUAUACAUGAGGAUCACCCAUGUAAAAUUUUAAUUUAAUUUUAAGGUGUAGAAGGGACAAUUU [Ex3 #3] (Eterna round: R97, puzzle: Exclusion 3) | 29.5 | – | 34.9 | – | – | – |
| AGUACUAACACGAAAGUGUUAGUACAAUAAGCUAGUGGAACAUGAGGAUCACCCAUGUCCUCAUUAGCUCGUCUUAG [Mat - Sensor v3 - Turn-off var 2 - D35] (puzzle: Sensor v3, turn-off variant 2) | – | – | – | 15.4 | 39.7 | 15.1 |
| UGAGUCUAAGGAUAUCUGAGGCGCGACAUGAGGAUCACCCAUGUCUCCAAGGAGAGAGCUGGAGAAGGUAGCUGGA [Eternabot (L2) Solution 81] (Eterna round: R97, puzzle: Exclusion 5) | 17.6 | – | 18.6 | – | – | – |
| ACAUGAGGAUCACCCAUGUAAACAUAAUGGCUCAUGUAGAGUCAGGAUAUGCGUGGCGAACAACCGCAGAAGGGACAAGACUGG [Deportation 27 - Jieux - Exclusion NG 3] (Eterna round: R96, puzzle: Exclusion NG 3) | 25.7 | 20.4 | 29 | – | – | – |
| CCUCAACAGUAGGAUAUCAUAUAACUAUUGUGAUGAGAAGGACUGACAUGAGGAUCACCCAUGUUAACGUGAUA [Exclusion 6 - 5:b] (puzzle: Exclusion 6) | – | – | – | – | 17.3 | – |
| UGGUCACAUGAGGAUCACCCAUGUCAGGAUAUCGUCACUGGAGCCUCGGCUCCAGUGACGAGAAGGGACAUAAU [E1/6-A2] (Eterna round: R97, puzzle: Exclusion 1) | 267 | – | 254 | – | – | – |
| AAGAAACAUGAGGAUCACCCAUGUGAGGAUAUGAUUAAGAAAAGAAAAGAAAGAAGAUUCAGAAGGCACAAAGG [salish99-ex1_r3_054] (puzzle: Exclusion 1) | – | – | – | 91.4 | 72.5 | 82.9 |
| UAUUAAGCAAGCAGAUCCCACAUGAGGAUCACCCAUGUGCUCGUCUUAUAAGGUACUGUGACGAGAGUCACGGUACC [Mat - Sensor, turn-off var - Eli Mod - D69] (Eterna round: R97, puzzle: Sensor, turn-off variant 1) | 165 | – | 129 | – | – | – |
| GUCAGCUCGUCAGGAUAUGAACAUGAGGAUCACCCAUGUAAGAUCAAGCUGCUUCGGCAGCAAGUUCAGAAGGGACGAGCUGAC [ENG2/10-B1] (Eterna round: R96, puzzle: Exclusion NG 2) | 161 | 78.7 | 113 | – | – | – |
| AUAGGCCGAGGAUAUGUAGCUAUGAACAUGAGGAUCACCCAUGUGAGUGUCGUGCGUAUUAUAGAAGGCGGUGCAU [EX5 B.14] (Eterna round: R97, puzzle: Exclusion 5) | 17 | – | 16.1 | – | – | – |
